Substitutions are numbered along the chain they refer to.
B1: PR003551 (bispecific antibody)
light: DIQMTQSPSTLSASVGDRVTVTCRASQSIYIWLAWYQQKPGKAPNLLIYKASSLETGVPSRFSGSGSGTEFTLTISSLQPDDFATYYCQQYYGSSRTFGQGTKVEIKRTVAAPSVFIFPPSDEQLKSGTASVVCLLNNFYPREAKVQWKVDNALQSGNSQESVTEQDSKDSTYSLSSTLTLSKADYEKHKVYACEVTHQGLSSPVTKSFNRGEC
heavy: EVQLVESGGGLVQPGGSLRLSCAASGFTFSSYWMSWVRQAPGKGLEWVANIKQEGSEKYYVDSVKGRFTISRDNAKNSLYLQMNSLRAEDTAVYYCARDRAVAGAFDIWGQGTMVTVSSASTKGPSVFPLAPSSKSTSGGTAALGCLVKDYFPEPVTVSWNSGALTSGVHTFPAVLQSSGLYSLSSVVTVPSSSLGTQTYICNVNHKPSNTKVDKKVEPKSCDKTHTCPPCPAPEAAGGPSVFLFPPKPKDTLMISRTPEVTCVVVDVSHEDPEVKFNWYVDGVEVHNAKTKPREEQYNSTYRVVSVLTVLHQDWLNGKEYKCKVSNKALGAPIEKTISKAKGQPREPQVYTLPPSREEMTKNQVSLTCLVKGFYPSDIAVEWESNGQPENNYKTTPPVLDSDGSFFLYSKLTVDKSRWQQGNVFSCSVMHEALHNHYTQKSLSLSPGEPKSSDKTHTPPPPPRTEVQLLESGGGLVQPGGSLRLSCAASGFIFSNFAMTWVRQPPEKGLKWVSSINGSGFNTYYTDSVKGRFTISRDNSRNTLYLQMNRLTAEDTAVYFCAKEGSSETDDHYYNVDVWGQGTTVTVSS
B2: PR007139 (bispecific antibody)
light: B1 light
heavy: EVQLVESGGGLVQPGGSLRLSCAASGFTFSSYWMSWVRQAPGKGLEWVANIKQEGSEKYYVDSVKGRFTISRDNAKNSLYLQMNSLRAEDTAVYYCARDRAVAGAFDIWGQGTMVTVSSASTKGPSVFPLAPSSKSTSGGTAALGCLVKDYFPEPVTVSWNSGALTSGVHTFPAVLQSSGLYSLSSVVTVPSSSLGTQTYICNVNHKPSNTKVDKKVEPKSCDKTHTCPPCPAPEAAGAPSVFLFPPKPKDTLMISRTPEVTCVVVDVSHEDPEVKFNWYVDGVEVHNAKTKPREEQYNSTYRVVSVLTVLHQDWLNGKEYKCKVSNKALPAPIEKTISKAKGQPREPQVYTLPPSREEMTKNQVSLTCLVKGFYPSDIAVEWESNGQPENNYKTTPPVLDSDGSFFLYSKLTVDKSRWQQGNVFSCSVMHEALHNHYTQKSLSLSPGGGSGGSEVQLVESGGGLVKPGGSLRLSCAASGFTFSDYYMSWIRQAPGKGLEWVSYISSSGSTIDYADSVKGRFTISRDNAKNSLYLQMNSLRAEDTAVYYCAREREEVAGTLDYDNWGQGTLVTVSS
B3: PR007141 (bispecific antibody)
light: B1 light
heavy: B2 heavy with A477V, I491F, S507G, S510T, E556P, Y563F
B4: PR007143 (bispecific antibody)
light: B1 light
heavy: B2 heavy with A477V, I491F, S507G, S510T, E556A, Y563F, L571P
B5: PR007138 (bispecific antibody)
light: B1 light
heavy: EVQLVESGGGLVQPGGSLRLSCAASGFTFSSYWMSWVRQAPGKGLEWVANIKQEGSEKYYVDSVKGRFTISRDNAKNSLYLQMNSLRAEDTAVYYCARDRAVAGAFDIWGQGTMVTVSSASTKGPSVFPLAPSSKSTSGGTAALGCLVKDYFPEPVTVSWNSGALTSGVHTFPAVLQSSGLYSLSSVVTVPSSSLGTQTYICNVNHKPSNTKVDKKVEPKSCDKTHTCPPCPAPEAAGAPSVFLFPPKPKDTLMISRTPEVTCVVVDVSHEDPEVKFNWYVDGVEVHNAKTKPREEQYNSTYRVVSVLTVLHQDWLNGKEYKCKVSNKALPAPIEKTISKAKGQPREPQVYTLPPSREEMTKNQVSLTCLVKGFYPSDIAVEWESNGQPENNYKTTPPVLDSDGSFFLYSKLTVDKSRWQQGNVFSCSVMHEALHNHYTQKSLSLSPGGGSGGSEVQLVESGGGLVKPGGSLRLSCVTSGFTFSDYYMNWIRQAPGKGQEWVSYISGNGSTIYYADSVKGRFTISRDNAKNSLYLQMNSLRAEDTAVYYCARVRPGGSGNYWDWFDPWGQGTPVTVSS
B6: PR007149 (bispecific antibody)
light: B1 light
heavy: B5 heavy with V477T, I491V, Q499L, G507N
B7: PR007146 (bispecific antibody)
light: B1 light
heavy: B2 heavy with I491V, Y534F, Q536E, Y563F
B8: PR007145 (bispecific antibody)
light: B1 light
heavy: B5 heavy with V477A, T478A, N489S, Q499L, G507R, N508S, P573L

What follows are binders tested against T1, human 4-1BB on CHO-K1 cells (human, UniProt Q07011 24-255) (assay: FACS).

| EC50 [nM] | Binder |
| --- | --- |
| 3.15 | B1 |

These binders were tested against T2, human PD-L1 on CHO-K1 cells (human, UniProt Q9NZQ7 19-290) (assay: FACS; MDA-MB-231 cells).
T2 sequence (Q9NZQ7 19-290): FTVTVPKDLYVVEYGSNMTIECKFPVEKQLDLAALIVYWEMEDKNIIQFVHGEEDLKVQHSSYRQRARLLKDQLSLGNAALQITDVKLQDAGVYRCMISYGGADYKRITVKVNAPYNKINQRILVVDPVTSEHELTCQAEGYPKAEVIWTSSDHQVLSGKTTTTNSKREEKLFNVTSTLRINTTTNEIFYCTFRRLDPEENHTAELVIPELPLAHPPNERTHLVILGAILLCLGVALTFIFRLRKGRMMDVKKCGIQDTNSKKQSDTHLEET

| EC50 [nM] | Binder |
| --- | --- |
| 0.257 | B2 |
| 0.331 | B3 |
| 0.315 | B4 |
| 0.202 | B5 |
| 0.206 | B6 |
| 0.327 | B7 |
| 0.286 | B8 |

Target: T1, human 4-1BB on CHO-K1 cells
Assay: FACS
Remark: another data set of the same source

| EC50 [nM] | Binder |
| --- | --- |
| 6.84 | B2 |
| 4.62 | B3 |
| 3.4 | B4 |
| 3.15 | B5 |
| 2.36 | B6 |
| 6.95 | B7 |
| 22.4 | B8 |

Each binder was assayed against T2, human PD-L1 on CHO-K1 cells (assay: FACS).

| EC50 [nM] | Binder |
| --- | --- |
| 1.29 | B1 |
